Several values for one entry are separate records, joined by “and”; a condition that tells them apart may be missing. Identical values can stand only once. Like-named read-outs stand apart in the source and are kept apart here. Marks after values point to notes of the source that are not given here.
Assays:
influenza virus = conditions: orally; cited from earlier work
[1] = tested on: Punta Toro virus, Adames strain; set-up: species or system C57BL/6 mice; conditions: mouse, in vivo
[2] = toxicity controls; 75 mg/kg/day i.p. bid x5
[3] = for tolerability in toxicity control animals: all surviving and losing no weight during therapy; for Tox Controls Surv/Total: uninfected, two treatments
[4] = tested on: Banzi virus (H336 strain); assay: Banzi virus infection in mice (Example 7); format: in vivo, BALB/c mice; conditions: for Infected, treated MDD ± SD: mice dying before day 21; for weight loss: placebo 9.6%; for Average brain titer: placebo 6.9
[5] = Uninfected toxicity controls (Example 7); format: in vivo, BALB/c mice
Description: Experiment Design: Animals were injected i.p. with either 10^−3 dilution of Banzi virus stocks diluted in minimal essential media (MEM), or were sham-inoculated. This virus concentration had previously produced approximately 90% mortality in mice. Animals were treated with two doses of 10, 1, 0.1 μg/mouse of Barrogen or with drug vehicle (placebo group). The first dose was administered 4-6 h prior to virus inoculation. The second dose was given 48 h later. As a positive control a group of 15 infected mice were treated with a single dose of Ampligen® 24 h prior to virus inoculation at a dose of 1 mg/kg. Groups of 3 sham-inoculated animals used as toxicity controls were treated with identical compounds on identical schedules to the infected animals.

[6] = tested on: Punta Toro virus, Adames strain; set-up: species or system C57BL/6 mice; conditions: mouse, in vivo; remark: listed apart in the source
[7] = tested on: Banzi virus (H336 strain); format: in vivo, Balb/c mice; conditions: for Infected, treated % survival (alive/total): 21 days; for Infected, treated % Mean wt. change: day 0 vs day 10
[8] = dosages used; no deaths or weight loss
[9] = dosages used; no deaths or weight loss; remark: listed apart in the source
[10] = every dose used
[11] = 0.1 μg/mouse/day i.p. 4-6 h pre-virus and 48 hr later
[12] = 1 μg/mouse/day i.p. 4-6 h pre-virus and 48 hr later
[13] = 10 μg/mouse/day i.p. 4-6 h pre-virus and 48 hr later
[14] = 0.1 μg/treatment i.p. −4 hpi and 2 dpi
[15] = 1 μg/treatment i.p. −4 hpi and 2 dpi

## CCOC(=O)C1=C[C@@H](OC(CC)CC)[C@H](NC(C)=O)[C@@H](N)C1 [Oseltamivir]
Influenza virus
  doses down to which highly active against influenza virus infections in mice: ~1 mg/kg/day

## NC(=O)c1ncn([C@@H]2O[C@H](CO)[C@@H](O)[C@H]2O)n1 [Ribavirin, reference compound]
[1]
  Liver virus: not detectable
[2]
  weight loss during the treatment period: 0.8 g

## GM-CSF: Granulocyte macrophage - colony stimulating factor
[3]
  tolerability in toxicity control animals: well tolerated
[3]; 20 ng i.p.
  Tox Controls Surv/Total: 3/3
[3]; 200 ng i.p.
  Tox Controls Surv/Total: 3/3

## poly I · poly C12u [Ampligen, reference compound]
[4]; 1 mg/kg i.p. single dose 24 h pre-virus exposure
  Infected, treated Surv/Total: 10/10 (100%)***
[4]; 1 mg/kg single dose 24 h prior, p<0.001
  survival: 100%
[4]; 1 mg/kg, 8 dpi
  animals with virus detected in brain: 1 of the 5
[4]; 1 mg/kg, 8 dpi, placebo 6.9 log10 CCID50/g of tissue
  brain virus titer: 5.6
[4]; 1 mg/kg, by 8 dpi
  average weight gain: 1.9%
[5]; 1 mg/kg i.p. single dose
  Uninfected toxicity control Surv/Total: 3/3 (100%)

B1: rBBX-01: Recombinant Apicomplexa-related protein (ARP) having the sequence of SEQ ID NO:20; termed Barrogen, also called rBBX-01 or E1 (protein, listed as Eimeria tenella)
chain: GEEADTQAWDTSVREWLVDTGRVFAGGVASIADGCRLFGAAVEGEGNAWEELVKTNYQIEVPQEDGTSISVDCDEAETLRQAVVDGRAPNGVYIGGTKYKLAEVKRDFTFNDQNYDVAILGKNKGGGFLIKTPNENVVIALYDEEKEQNKADALTTALNFAEYLYQGGF
[4]; [11]
  Infected, treated Surv/Total: 5/10 (50%)*
  Infected, treated MDD ± SD: 8.4 ± 5.5
[4]; 0.1 μg/mouse, 8 dpi
  virus in the brains: No virus was detected
  weight loss: 0.2%
[4]; 0.1 μg/mouse, placebo 10%, p<0.05
  survival: 50%
[4]; [12]
  Infected, treated Surv/Total: 7/10 (70%)***
  Infected, treated MDD ± SD: 14.3 ± 1.5
[4]; 1 μg/mouse, 8 dpi
  animals with virus detected in brain: 2 out of 5
  Average brain titer: 4.6 log10 CCID50
  weight loss: 0.5%
[4]; 1 μg/mouse, placebo 10%, p<0.001
  survival: 70%
[4]; [13]
  Infected, treated Surv/Total: 4/10 (40%)
  Infected, treated MDD ± SD: 14.2 ± 3.5
[4]; 10 μg/mouse, 8 dpi
  animals with virus detected in brain: 2 out of 5
  Average brain titer: 2.8 log10 CCID50
  weight loss: 1.3%
[4]; 10 μg/mouse, not significantly higher than placebo
  survival: 40%
[6]
  Hepatic icterus reduced: 17-43%
  mice protected / cured: 100%
  serum ALT: markedly reduced
  serum virus titers: significantly reduced
[6]; ip
  Mean Liver Score ± SD: 2.6 ± 0.2 and 2.7 ± 0.3 and 2.0 ± 0.6 and 2.9 ± 0.5
[5]; 0.1 μg/mouse/day i.p., two doses 48 h apart
  Uninfected toxicity control Surv/Total: 3/3 (100%)
[5]; 1 μg/mouse/day i.p., two doses 48 h apart
  Uninfected toxicity control Surv/Total: 3/3 (100%)
[5]; 10 μg/mouse/day i.p., two doses 48 h apart
  Uninfected toxicity control Surv/Total: 3/3 (100%)
[1]
  mice protected (survival): 100%
  reduction of serum viral load: more than 2 logs
  serum ALT: markedly reduced
[7]; [14]
  Infected, treated % survival (alive/total): 47% (7/15)**
  Infected, treated % Mean wt. change: -1.4 g
[7]; [15]
  Infected, treated % survival (alive/total): 47% (7/15)**
  Infected, treated % Mean wt. change: -1.0 g
[7]; Barrogen-treated vs placebo-treated mice (FIG. 30)
  mean-day-to-death: significant increase
[8]
  tolerability in toxicity controls: well tolerated
[9]
  tolerability in toxicity controls: well tolerated
[10]
  tolerability in toxicity control mice: well tolerated
[3]
  tolerability in toxicity control animals: well tolerated

Reference: patent US7550150B2, “Methods of treating or preventing a disease, disorder or condition associated with a viral infection” (Barros Research Institute, priority 2005, dated 2009)
